According to the supplement of paper PMC9233669:
Fewer inactive variants are shown than the library holds.

Columns and labels:
biotinyl-Phe-oxazolone = assay: self-aminoacylation, catalytic enhancement (BFO) (fold over background); higher = more active; k-Seq, kA / k0A0; sequences stand for … in GGGAAUGGAUCCACAUCUACGAAUUC…UUCACUGCAGACUUGACGAAGCUG
In short: (§1)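 Catalytic enhancement equals the median kA over the uncatalyzed rate, the latter read from the low-activity peak of a bimodal Gaussian fit. Values of kA came from fitting each sequence's fraction reacted to a pseudo-first-order model, with 1000 bootstraps. Reacted RNA was captured with streptavidin and quantified by triplicate qPCR and Illumina sequencing after 90 minutes at room temperature with 2–1250 μM biotinyl-aminoacyl-oxazolone and 0.43 μM mutagenized RNA pools bearing a 21-nt variable region.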

biotinyl-Ile-oxazolone = assay: self-aminoacylation, catalytic enhancement (BIO) (fold over background); higher = more active; k-Seq, kA / k0A0; sequences stand for … in GGGAAUGGAUCCACAUCUACGAAUUC…UUCACUGCAGACUUGACGAAGCUG
In short: as §1

biotinyl-Met-oxazolone = assay: self-aminoacylation, catalytic enhancement (BMO) (fold over background); higher = more active; k-Seq, kA / k0A0; sequences stand for … in GGGAAUGGAUCCACAUCUACGAAUUC…UUCACUGCAGACUUGACGAAGCUG
In short: as §1

biotinyl-Val-oxazolone = assay: self-aminoacylation, catalytic enhancement (BVO) (fold over background); higher = more active; k-Seq, kA / k0A0; sequences stand for … in GGGAAUGGAUCCACAUCUACGAAUUC…UUCACUGCAGACUUGACGAAGCUG
In short: as §1

biotinyl-Leu-oxazolone = assay: self-aminoacylation, catalytic enhancement (BLO) (fold over background); higher = more active; k-Seq, kA / k0A0; sequences stand for … in GGGAAUGGAUCCACAUCUACGAAUUC…UUCACUGCAGACUUGACGAAGCUG
In short: as §1

biotinyl-Trp-oxazolone = assay: self-aminoacylation, catalytic enhancement (BWO) (fold over background); higher = more active; k-Seq, kA / k0A0; sequences stand for … in GGGAAUGGAUCCACAUCUACGAAUUC…UUCACUGCAGACUUGACGAAGCUG
In short: as §1

Sequence	self-aminoacylation (biotinyl-Phe-oxazolone)	self-aminoacylation (biotinyl-Ile-oxazolone)	self-aminoacylation (biotinyl-Met-oxazolone)	self-aminoacylation (biotinyl-Val-oxazolone)	self-aminoacylation (biotinyl-Leu-oxazolone)	self-aminoacylation (biotinyl-Trp-oxazolone)
AAGUUUGCUAAUAGGCGCACG [Fam3.1 aminoacylation ribozyme variant]	2.42	0.981	0.568	0.833	0.865	0.485
AUUCACCUUCGUCAUCGGGUG [Fam2.2 aminoacylation ribozyme variant]	14.9	2.12	2.3	2.38	3.28	2.79
AUUCAGCUUGGUCAUCGGGUG [Fam2.2 aminoacylation ribozyme variant]	14	2.75	3.5	3.37	3.63	4.05
AAAUUUGGUAAUAGUCGCAAG [Fam3.1 aminoacylation ribozyme variant]	2.12	2.2	1.88	1.74	1.86	2.27
AUUACCCAGGUCAGCGAGUGA [Fam2.1 aminoacylation ribozyme variant]	34.2	3.4	5.2	3.31	5.59	6.47
AUUACCCUGGCCAUCGAAUGA [Fam2.1 aminoacylation ribozyme variant]	1.84	1	0.928	1.31	1.4	0.331
AUUUACCGAGGUCAUCGGGUG [Fam2.2 aminoacylation ribozyme variant]	64.7	4.97	8.5	4.5	11.1	6.88
AAGUUUGAUAAUAGUCGCAAC [Fam3.1 aminoacylation ribozyme variant]	1.27	0.926	0.773	0.809	0.718	0.736
CCUCAAUUCAAGCAAUCGGUC [Fam1B.1 aminoacylation ribozyme variant]	6.19	1.07	0.916	0.943	1.04	3.57
AUUACCCUGGUCAACUAGUGA [Fam2.1 aminoacylation ribozyme variant]	24.9	3.93	8.64	4.39	6.83	9.81
GUUACCCCGGUCAUCGAGUGA [Fam2.1 aminoacylation ribozyme variant]	45.8	3.82	6.95	3.38	7.66	8.27
CCACACUUCAAGCAUUUGGUC [Fam1B.1 aminoacylation ribozyme variant]	0.631	0.835	0.691	0.851	0.77	0.912
CUAUUUCAAACAAUCGGGCUG [Fam1A.1 aminoacylation ribozyme variant]	2.05	1.24	1.08	1	0.844	1.88
CAACACUUCAAGCUAUCGGUC [Fam1B.1 aminoacylation ribozyme variant]	0.964	1.2	1.03	1.05	0.89	1.02
AUUACCCUGGUCAUGGUGUGA [Fam2.1 aminoacylation ribozyme variant]	4.16	1.27	1.64	1.18	1.84	2.24
AUUACGCUGGUCAUCGUGUGA [Fam2.1 aminoacylation ribozyme variant]	15.4	1.62	2.48	1.6	2.59	3
UAGGUUGCUAAUAGUCGCAAG [Fam3.1 aminoacylation ribozyme variant]	1.91	1.4	1.2	1.2	1.15	2.01
CAGUUUGCUAAUAAUCGCAAG [Fam3.1 aminoacylation ribozyme variant]	1.1	0.97	1	1.03	0.99	0.939
AUACACCGAGGUCAUCGGGUG [Fam2.2 aminoacylation ribozyme variant]	28.8	4.24	5.37	4.34	4.55	4.15
AUUGACCUAGGUCAGCGGGUG [Fam2.2 aminoacylation ribozyme variant]	12.5	2.61	2.59	2.86	3.01	3.29
AUUCACCUAGGUCAUGGGGUG [Fam2.2 aminoacylation ribozyme variant]	39.9	3.7	5.76	3.56	7.33	5.27
AUUACCCUGUUCGUCGAGUGA [Fam2.1 aminoacylation ribozyme variant]	0.834	1.15	0.885	1.2	0.865	1.44
AAUCACCUAGGUCAGCGGGUG [Fam2.2 aminoacylation ribozyme variant]	28.9	4.05	4.61	2.9	4.16	4.58
AUUCACCUAGGUCAUCGGUUA [Fam2.2 aminoacylation ribozyme variant]	1.09	1.11	1.28	1.17	1.27	1.35
AUUCUCCUUGGUCAUCGGGUG [Fam2.2 aminoacylation ribozyme variant]	75	6.85	9.71	7.53	13.8	9.53
ACACACUUCCAGCAAUCGGUC [Fam1B.1 aminoacylation ribozyme variant]	1.19	1.47	1.31	1.3	1.3	1.6

Sequence	self-aminoacylation (biotinyl-Phe-oxazolone)	self-aminoacylation (biotinyl-Ile-oxazolone)	self-aminoacylation (biotinyl-Met-oxazolone)	self-aminoacylation (biotinyl-Val-oxazolone)	self-aminoacylation (biotinyl-Leu-oxazolone)	self-aminoacylation (biotinyl-Trp-oxazolone)
AUUACCCUGGGCAUGGAGUGA [Fam2.1 aminoacylation ribozyme variant]	40.7	3.35	7.29	3.13	8.39	8.01
AUUACCCUGGUCGUCGAGUCA [Fam2.1 aminoacylation ribozyme variant]	0.524	1.05	0.904	1.05	0.956	0.444
AAGUAUGCUAAUAAUCGCAAG [Fam3.1 aminoacylation ribozyme variant]	2	1.45	1.28	1.05	1.14	1.39
AUUACCCUGGUCUUCGUGUGA [Fam2.1 aminoacylation ribozyme variant]	7.45	1.05	1.46	1.02	1.45	1.93
CCAAACUUCAAACAAUCGGUC [Fam1B.1 aminoacylation ribozyme variant]	86.6	1.35	1.53	1.52	2.21	42
CCACACUUAAAGCGAUCGGUC [Fam1B.1 aminoacylation ribozyme variant]	0.793	1.23	0.963	1.18	1	0.934
CGACUUCAAACAAUCGGUAUG [Fam1A.1 aminoacylation ribozyme variant]	10.8	1.09	1.16	1.28	1.3	5.6
CUACUUCAACCAAUCGGACUG [Fam1A.1 aminoacylation ribozyme variant]	10.7	0.79	0.814	0.946	0.851	4.9
AAGUUUGCAAAUAGCCGCAAG [Fam3.1 aminoacylation ribozyme variant]	0.662	1.05	0.737	1.06	0.933	1.07
AAGUUUGCUAAUUGUCUCAAG [Fam3.1 aminoacylation ribozyme variant]	1.05	0.937	0.943	0.881	0.852	0.743
AAGUUUGCUAAUAGUGGUAAG [Fam3.1 aminoacylation ribozyme variant]	0.868	0.992	0.769	0.801	0.788	0.724
CUUCUGCAAACAAUCGGUCUG [Fam1A.1 aminoacylation ribozyme variant]	1.52	0.957	0.85	0.889	0.795	0.919
GUUCACCUAGCUCAUCGGGUG [Fam2.2 aminoacylation ribozyme variant]	1.08	1.55	1.64	1.91	2.06	2.86
CUACUUCAAACAAUCGAUUUG [Fam1A.1 aminoacylation ribozyme variant]	1.26	0.717	0.63	0.657	0.482	0.752
AUGCACCUAGGUCGUCGGGUG [Fam2.2 aminoacylation ribozyme variant]	8.26	1.68	1.75	1.8	2.42	2.39
AUACACCUAGGUUAUCGGGUG [Fam2.2 aminoacylation ribozyme variant]	19.1	2.73	3.19	2.95	2.99	4.77
AUUCACCUAGGUCAUGAGGUG [Fam2.2 aminoacylation ribozyme variant]	3.32	1.94	2.41	1.81	3.15	1.75
AUGCACCUAGGACAUCGGGUG [Fam2.2 aminoacylation ribozyme variant]	19.4	3.37	3.57	2.54	4.43	5.58
AUUCACGUACGUCAUCGGGUG [Fam2.2 aminoacylation ribozyme variant]	79.8	6.46	12.2	6.9	12.8	9.47
AUUCACCUUGGUCAUCAGGUG [Fam2.2 aminoacylation ribozyme variant]	7.28	1.7	1.9	1.39	2.49	2.15
CUACUUCAAACAAUCGUUGUG [Fam1A.1 aminoacylation ribozyme variant]	1.69	1.17	1.68	1.15	1.7	1.38
AUUACCCUUGUCAUCAAGUGA [Fam2.1 aminoacylation ribozyme variant]	12.5	2.2	4.86	2.77	4.43	6.3
UUUCAGCUAGGUCAUCGGGUG [Fam2.2 aminoacylation ribozyme variant]	39	4.98	5.9	6.04	6.61	7.4
CGACUUCAAACAAUCGGUCUC [Fam1A.1 aminoacylation ribozyme variant]	53.8	1.52	1.59	1.35	1.99	31.1
AUCACCCUGGUCAUCGUGUGA [Fam2.1 aminoacylation ribozyme variant]	34.7	1.81	3.98	2.31	5.08	4.97
